T1: amphyphisin SH3 (AMPH_HUMAN), P49418
T1 chain: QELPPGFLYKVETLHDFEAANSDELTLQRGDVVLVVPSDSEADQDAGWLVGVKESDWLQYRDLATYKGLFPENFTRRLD


How the values were obtained:
[1] = molecular target: T1, amphyphisin SH3 (AMPH_HUMAN), P49418; assay: SPOT array
[2] = molecular target: endophilin SH3 (SH3G2_HUMAN), Q99962; assay: SPOT array

Binder	normalised SPOT signal, Boehringer light units (BLU); mean over the file's lines of this peptide [1]	normalised SPOT signal, Boehringer light units (BLU); mean over the file's lines of this peptide [2]
VEHVPGRPVRNPQS [P25391 53-66]	638	49.9
VKMQLRRPSDQEVS [Q04864 259-272]	81.1	382
VLAEIPRPLKRRGS [Q9Y290 36-49]	138	205
VFTPLRRPGMLVPK [Q9UIW6 20-33]	98	187
VGASLTRPNRRLRW [Q9Y3M8 456-469]	1960	177
VLAELPRPRRPPLQ [Q9NSY0 101-114]	596	244
SKAYPKRPLLGLVL [Q9GZR7 380-393]	12.5	385
SISKPERPMKFLRE [P31321 38-51]	609	8910
VKLKIKRPYGRKSQ [O60281 820-833]	30.3	32
VKRRPGRPRKSPLQ [Q9NR48 1846-1859]	167	107
VGDVLRRPSKDEPL [Q14571 2500-2513]	26	115
VLGVLRRPLEAPPE [Q03169 136-149]	1.1	5.5
VESILKRPSSAITR [Q9NPG6 312-325]	27.1	31.6
VSRLPKRPEPSPPL [Q15515 17-30]	30	3650
VFLSFRRPFWREEH [Q96RQ9 355-368]	12.9	13.7
VGASLTRPSRKLRW [Q92502 483-496]	7280	269
VEGILKRPPDEQRL [Q15370 31-44]	32.4	20.6
VKIPPKRPPRKHIV [Q8WVK0 107-121]	17500	14900
VGTELLRPLRGLLS [Q9NX26 97-110]	320	112
VETSLRRPQDKDAK [P36776 780-793]	26.8	43.5
VLLPPPRPTRKRSL [Q9P2L7 767-780]	8360	7360

Binder	normalised SPOT signal, Boehringer light units (BLU); mean over the file's lines of this peptide [1]	normalised SPOT signal, Boehringer light units (BLU); mean over the file's lines of this peptide [2]
VKLLIRRPESFGPA [Q15413 2218-2231]	40.2	144
VLDFPRRPPWSYEM [Q96CT5 125-139]	53.9	397
VEELLRRPMDSLDS [P42229 764-777]	30.5	46.2
VGIQLRRPLFQKVT [P21709 133-146]	36.6	77.8
VLALPGKPPFLTQL [P05771 392-406]	57.3	474
VDNTIKRPNPAPGT [Q9UQ13 68-81]	7.4	51.8
VEGSPFRPPSHSFS [O95359 85-99]	51.3	79.6
VHGDIFRPPRKGML [Q99805 351-364]	4010	97.6
VHLKLRRPVTVPAG [Q9BT99 240-253]	28	64.9
VGKAFIRPFREHHI [Q9GZT0 109-122]	11700	390
VFQAPRRPGIGTVG [Q9UL18 20-33]	155	728
VKPGLRRPPASPAL [Q05215 182-195]	32.8	34.9
VSRDITRPPKTVAT [Q14425 672-685]	119	189
VLPKFPRPVRTQEQ [Q92543 889-902]	475	303
SGVRFHRPYRLLMH [Q9NT61 332-345]	1490	200
VGTLPSKPPFRFGQ [O60318 21-35]	169	498
SGRHFRRPDPSREP [Q9H9Q6 68-81]	23.3	15
VLLKLRRPVVGSSE [Q14596 255-268]	32.8	233
VFRVLRRPQEFVNR [Q9ULB8 127-140]	72.4	281
VKKIPKKPPAPDPF [Q9UQN5 1344-1358]	56.8	2740
VEPPPRRPMSQKSE [Q96MR0 151-164]	247	258

From article PMC314469, “Protein Interaction Networks by Proteome Peptide Scanning” (PLoS Biology, 2004)
